# Laboratory results: patent US20250355001A1, “METHOD FOR DETECTING A TAU PROTEIN FRAGMENT IN A SAMPLE” (GTINVENT LIMITED, priority 2022, published 2025)
# B1: S1G2: sheep-derived anti-tau core clone; scFv SEQ ID NO: 81, VH 455, VL 456 (protein)
# scFv: QVQLQESGPSLVKPSQTLSLTCTVSGFSLTSNSVGWVRQAPGKAPEWVAGIDTDGEEGYNPALNSRLSITRDTSKSQVSLSLSSVTSEDTAVYYCGRSYRADGLAYGYVQAIDYWGPGLLVTVSSEGKSSGASGESKVDDQAVVTQPSSVSGSLGQRVSITCSGSFIGISSVGWFQQLPGSGLRTIIVASDGRPSGVPDRFSMSKSGNTATLTISSLQAEDEADYFCGSSDRTPYTGVFGSGTRLTVLG
# modifications: S1G2 amino acid sequence
# Key:
# hT40 = target: T1, hT40 (Homo sapiens, UniProt P10636); assay: Sandwich ELISA limits of detection (LoD) of antibody pairs; format: binding; settings: S1D12 mAb capture; hT40
# T1 construct: Full length tau (hT40)
# Text: The diverse panel of high affinity anti-tau antibodies (scAb and mAb formats) were paired in various combinations and tested in a Sandwich (or Capture) ELISA format to calculate their limits of detection (LoD) and their ability to differentiate between different tau species. Biologically, tau exists in 6 different isoforms and is subjected to numerous post translational modifications, some of them playing a significant role in the progression of neurodegeneration.
# For Sandwich ELISA using colourimetric detection, 96 well Maxisorp plates were coated with the capture antibody S1D12 mAb at 1 μg/ml for 1 h at RT followed by blocking with 2% MPBS as normal. Full length tau (hT40), at 1 μg/ml starting concentration was added to designated wells and double diluted across rest of the plates and left to incubate at R/T for 1 h. A series of detection scAbs with varying epitope recognition properties were added at 10 μg/ml to designated wells (FIG. 22). For colourimetric detection HRP conjugated anti-HuCk secondary antibody was used and the resulting immunoreaction was developed and absorbance at 450 nm measured as described previously. Cut-off point for a positive binding event was an absorbance value of 0.3 following background subtraction. In order to enhance the assay sensitivity, a chemiluminescent detection method was adopted where 50 μL SuperSignal ELISA Femto Substrate (Thermo Scientific) was added to each well following incubation with anti-HuCK HRP antibody and subsequent washing. The luminescence was read using Clariostar Plus microplate reader. A further modification to this protocol was done where various detection scAbs were directly conjugated with HRP and detected using chemiluminescent protocol as before. The lowest levels of detection achieved using different detection scAbs and a comparison of colourimetric and chemiluminescent methods of detection are shown in Table 28
# Similarly, a sandwich ELISA format was set up using S1G2 mAb at 1 μg/ml as the capture antibody and HRP conjugated S1D12 mAb for detection. The assay was conducted using chemiluminescent protocol described above.
# dGAE aggregates = dGAE aggregates (Homo sapiens, UniProt P10636); assay: Sandwich ELISA on SDS/Triton X-100 treated dGAE aggregates; format: binding; design: key to LoD, 423 mAb capture, Untreated dGAE agg. / LoD, Direct immobilisation of dGAE aggregates, Untreated dGAE agg.: NB denotes no binding; settings: untreated aggregates
# Method: We have noticed Sodium dodecyl sulphate (SDS) can break apart dGA/dGAE aggregates and separate them into smaller fragments by performing an SDS-PAGE. This has been replicated and tested using an ELISA as described below.
# For aggregation, 1000 μL 100 μM dGAE+10 μL 10 mM DTT was added to a ‘LoBind’ microfuge tubes and agitated at 700 RPM/37° C. for 24 hours. Resulting sample centrifuged at 17,000×g/4° C. for 60 min and supernatant discarded to remove left over monomer. Pellet resuspended in half the original volume for future experiments and hereafter referred to as ‘aggregates’. 1 μl of aggregates was added to 1 ml of PBS and SDS was added to a final concentration of 1% (w/v). This was left to incubate on lab bench for 1 h with gentle agitation every 15 minutes. In order to neutralize the SDS effect on ELISA, Triton X-100 added to a final concentration of 3% (v/v) and mixed gently by pipetting to prevent any bubble formation. 200 μl added of this mix was to the first well of an ELISA plate coated with 1 μg/ml S1D12 mAb and blocked with 2% MPBS. Similarly aggregates treated with only SDS or Triton X-100, untreated aggregates, dGAE monomers treated with only SDS or SDS+Titon X-100 were also added to designated wells as controls. All samples were then double diluted across the plate in final volumes of 100 μl. The final column was left with no protein to act as a blank. This was allowed to stand at room temperature for 1 hour followed by the addition of detection scAb-S1G2 at 10 μg/ml. Anti-HuCk HRP labelled secondary antibody was added as described previously and ELISA data generated was represented using the graph below.
# Sequence of dGAE aggregates (P10636 614-708): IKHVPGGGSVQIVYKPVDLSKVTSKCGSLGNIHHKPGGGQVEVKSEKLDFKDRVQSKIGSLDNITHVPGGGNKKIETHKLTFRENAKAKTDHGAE
# T1 sequence (P10636 1-441 isoform P10636-8): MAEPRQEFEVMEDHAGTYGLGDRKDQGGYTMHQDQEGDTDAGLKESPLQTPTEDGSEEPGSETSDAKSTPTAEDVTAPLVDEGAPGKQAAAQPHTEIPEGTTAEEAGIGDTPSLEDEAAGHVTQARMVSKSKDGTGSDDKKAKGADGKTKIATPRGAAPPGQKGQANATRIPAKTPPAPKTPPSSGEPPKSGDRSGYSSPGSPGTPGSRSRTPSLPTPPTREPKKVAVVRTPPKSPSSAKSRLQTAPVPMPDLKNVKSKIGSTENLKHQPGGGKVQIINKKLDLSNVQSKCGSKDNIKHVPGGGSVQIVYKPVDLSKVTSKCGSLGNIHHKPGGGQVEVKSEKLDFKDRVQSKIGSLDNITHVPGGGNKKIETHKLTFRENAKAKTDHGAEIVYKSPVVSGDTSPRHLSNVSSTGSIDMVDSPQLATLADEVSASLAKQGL
molecule,measurement,setting,value
B1,LoD (ng/ml) direct HRP conjugation of detection scAb & chemiluminescence,hT40,0.04 ng/mL
same,"LoD, Direct immobilisation of dGAE aggregates, Untreated dGAE agg.",dGAE aggregates; direct immobilisation,NB
same,"LoD, 423 mAb capture, Untreated dGAE agg.","dGAE aggregates; sandwich ELISA, 423 mAb capture",NB
same,"LoD, S1D12 mAb capture, Untreated dGAE agg.","dGAE aggregates; sandwich ELISA, S1D12 mAb capture",250 ng/mL
